Reference: the supplement of paper PMC10065799, “High-throughput profiling of sequence recognition by tyrosine kinases and SH2 domains using bacterial peptide display” (eLife, 2023)

Columns and labels:
Grb2 SH2 = Grb2 SH2 (UniProt P62993); assay: SH2 binding enrichment of the phosphorylated peptide, bacterial display (enrichment ratio); higher = better substrate or ligand; peptides without Tyr show the background
SHP2-C SH2 = assay: as above
c-Src SH2 = assay: as above
EPHB1 = EPHB1 (UniProt P54762); assay: phosphorylation enrichment, bacterial display (enrichment ratio); higher = better substrate or ligand; peptides without Tyr show the background
Sequence of EPHB1 (P54762 whole entry, looked up): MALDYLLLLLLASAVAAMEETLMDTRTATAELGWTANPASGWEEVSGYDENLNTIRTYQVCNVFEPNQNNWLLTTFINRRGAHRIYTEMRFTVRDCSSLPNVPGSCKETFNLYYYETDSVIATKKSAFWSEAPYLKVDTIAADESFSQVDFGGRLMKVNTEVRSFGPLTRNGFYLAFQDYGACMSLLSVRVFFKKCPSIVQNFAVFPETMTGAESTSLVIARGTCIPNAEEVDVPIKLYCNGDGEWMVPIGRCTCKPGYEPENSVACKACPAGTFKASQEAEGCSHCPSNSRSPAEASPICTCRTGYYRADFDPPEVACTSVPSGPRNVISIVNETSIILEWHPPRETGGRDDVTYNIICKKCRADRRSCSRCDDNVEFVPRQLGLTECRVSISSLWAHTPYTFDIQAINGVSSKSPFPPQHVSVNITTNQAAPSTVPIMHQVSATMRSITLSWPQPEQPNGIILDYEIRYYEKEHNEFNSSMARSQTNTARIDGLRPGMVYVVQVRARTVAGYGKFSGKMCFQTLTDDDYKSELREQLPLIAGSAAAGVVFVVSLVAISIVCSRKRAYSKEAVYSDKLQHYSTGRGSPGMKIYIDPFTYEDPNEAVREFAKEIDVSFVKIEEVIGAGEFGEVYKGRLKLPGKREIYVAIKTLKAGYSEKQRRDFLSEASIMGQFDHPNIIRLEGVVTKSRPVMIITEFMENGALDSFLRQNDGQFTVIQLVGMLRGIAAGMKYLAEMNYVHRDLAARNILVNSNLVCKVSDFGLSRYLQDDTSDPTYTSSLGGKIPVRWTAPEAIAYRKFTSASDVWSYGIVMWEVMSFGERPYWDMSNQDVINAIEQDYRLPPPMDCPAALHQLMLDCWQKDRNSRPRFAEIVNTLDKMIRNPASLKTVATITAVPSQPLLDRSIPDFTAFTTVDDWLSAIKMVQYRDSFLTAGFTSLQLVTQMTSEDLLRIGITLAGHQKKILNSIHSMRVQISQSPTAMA

Fyn = Fyn (UniProt P06241); assay: as above
Sequence of Fyn (P06241 whole entry, looked up): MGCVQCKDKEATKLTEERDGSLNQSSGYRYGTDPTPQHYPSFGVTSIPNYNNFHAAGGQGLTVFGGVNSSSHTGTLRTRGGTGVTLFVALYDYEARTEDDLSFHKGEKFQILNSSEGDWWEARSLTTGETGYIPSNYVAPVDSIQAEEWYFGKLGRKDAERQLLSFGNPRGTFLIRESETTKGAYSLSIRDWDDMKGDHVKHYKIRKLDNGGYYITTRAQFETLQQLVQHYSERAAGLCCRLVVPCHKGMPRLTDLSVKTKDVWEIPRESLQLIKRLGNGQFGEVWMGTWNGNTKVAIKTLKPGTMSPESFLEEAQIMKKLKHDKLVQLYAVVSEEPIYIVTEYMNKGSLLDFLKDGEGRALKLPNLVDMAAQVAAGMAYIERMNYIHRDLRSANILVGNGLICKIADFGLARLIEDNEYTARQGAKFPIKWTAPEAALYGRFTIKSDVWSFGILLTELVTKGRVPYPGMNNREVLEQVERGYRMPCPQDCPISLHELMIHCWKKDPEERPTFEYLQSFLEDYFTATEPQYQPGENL

EPHB2 = EPHB2 (UniProt P29323); assay: as above
Fer (mouse) = assay: as above
MERTK = MERTK (UniProt Q12866); assay: as above
Jak2 = Jak2 (UniProt O60674); assay: as above
Sequence of Jak2 (O60674 whole entry, looked up): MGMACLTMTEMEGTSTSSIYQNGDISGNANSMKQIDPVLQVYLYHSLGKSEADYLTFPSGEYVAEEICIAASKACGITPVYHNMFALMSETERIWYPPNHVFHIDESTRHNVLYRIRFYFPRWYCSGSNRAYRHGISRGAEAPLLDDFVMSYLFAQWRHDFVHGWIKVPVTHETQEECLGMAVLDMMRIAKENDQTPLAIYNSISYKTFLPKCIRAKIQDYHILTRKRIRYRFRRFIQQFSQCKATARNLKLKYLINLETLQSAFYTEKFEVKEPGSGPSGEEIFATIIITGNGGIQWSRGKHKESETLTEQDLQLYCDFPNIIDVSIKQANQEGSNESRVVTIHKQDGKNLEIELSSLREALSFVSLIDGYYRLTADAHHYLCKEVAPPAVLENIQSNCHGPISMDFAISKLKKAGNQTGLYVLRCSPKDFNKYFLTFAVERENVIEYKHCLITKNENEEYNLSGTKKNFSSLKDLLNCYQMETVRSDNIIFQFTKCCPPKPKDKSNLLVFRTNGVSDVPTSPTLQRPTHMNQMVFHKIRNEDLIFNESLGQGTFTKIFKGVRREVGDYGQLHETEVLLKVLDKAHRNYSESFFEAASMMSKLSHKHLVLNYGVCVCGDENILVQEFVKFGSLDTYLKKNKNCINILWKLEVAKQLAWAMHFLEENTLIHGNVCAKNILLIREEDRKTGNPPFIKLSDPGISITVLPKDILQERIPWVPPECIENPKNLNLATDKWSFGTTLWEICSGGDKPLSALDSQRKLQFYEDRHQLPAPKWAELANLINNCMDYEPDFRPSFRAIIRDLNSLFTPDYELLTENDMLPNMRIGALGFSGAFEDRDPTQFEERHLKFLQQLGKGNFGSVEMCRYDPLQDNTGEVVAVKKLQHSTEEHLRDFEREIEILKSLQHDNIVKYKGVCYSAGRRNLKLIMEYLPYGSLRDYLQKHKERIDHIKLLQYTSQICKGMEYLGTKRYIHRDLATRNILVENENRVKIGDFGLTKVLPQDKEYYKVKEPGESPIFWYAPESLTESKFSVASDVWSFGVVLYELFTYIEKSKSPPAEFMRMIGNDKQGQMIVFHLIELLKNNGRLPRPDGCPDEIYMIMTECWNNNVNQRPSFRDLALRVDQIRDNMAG

Hck = Hck (UniProt P08631); assay: as above
Sequence of Hck (P08631 whole entry, looked up): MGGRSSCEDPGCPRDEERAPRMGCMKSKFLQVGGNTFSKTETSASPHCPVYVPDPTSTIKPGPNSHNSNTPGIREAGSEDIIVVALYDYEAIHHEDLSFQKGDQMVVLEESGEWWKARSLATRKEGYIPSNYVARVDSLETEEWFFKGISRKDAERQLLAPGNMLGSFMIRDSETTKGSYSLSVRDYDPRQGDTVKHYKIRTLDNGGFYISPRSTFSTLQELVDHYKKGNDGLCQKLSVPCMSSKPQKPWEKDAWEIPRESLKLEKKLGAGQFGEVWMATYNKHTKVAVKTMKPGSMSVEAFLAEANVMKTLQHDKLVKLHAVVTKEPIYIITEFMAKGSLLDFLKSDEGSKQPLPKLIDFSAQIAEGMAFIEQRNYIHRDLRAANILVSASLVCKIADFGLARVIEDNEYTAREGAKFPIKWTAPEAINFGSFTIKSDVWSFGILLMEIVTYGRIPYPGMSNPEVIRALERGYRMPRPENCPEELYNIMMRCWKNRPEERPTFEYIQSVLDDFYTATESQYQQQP

FGFR1 = FGFR1 (UniProt P11362); assay: as above
c-Src = assay: as above
Fes = Fes (UniProt P07332); assay: as above
Sequence of Fes (P07332 whole entry, looked up): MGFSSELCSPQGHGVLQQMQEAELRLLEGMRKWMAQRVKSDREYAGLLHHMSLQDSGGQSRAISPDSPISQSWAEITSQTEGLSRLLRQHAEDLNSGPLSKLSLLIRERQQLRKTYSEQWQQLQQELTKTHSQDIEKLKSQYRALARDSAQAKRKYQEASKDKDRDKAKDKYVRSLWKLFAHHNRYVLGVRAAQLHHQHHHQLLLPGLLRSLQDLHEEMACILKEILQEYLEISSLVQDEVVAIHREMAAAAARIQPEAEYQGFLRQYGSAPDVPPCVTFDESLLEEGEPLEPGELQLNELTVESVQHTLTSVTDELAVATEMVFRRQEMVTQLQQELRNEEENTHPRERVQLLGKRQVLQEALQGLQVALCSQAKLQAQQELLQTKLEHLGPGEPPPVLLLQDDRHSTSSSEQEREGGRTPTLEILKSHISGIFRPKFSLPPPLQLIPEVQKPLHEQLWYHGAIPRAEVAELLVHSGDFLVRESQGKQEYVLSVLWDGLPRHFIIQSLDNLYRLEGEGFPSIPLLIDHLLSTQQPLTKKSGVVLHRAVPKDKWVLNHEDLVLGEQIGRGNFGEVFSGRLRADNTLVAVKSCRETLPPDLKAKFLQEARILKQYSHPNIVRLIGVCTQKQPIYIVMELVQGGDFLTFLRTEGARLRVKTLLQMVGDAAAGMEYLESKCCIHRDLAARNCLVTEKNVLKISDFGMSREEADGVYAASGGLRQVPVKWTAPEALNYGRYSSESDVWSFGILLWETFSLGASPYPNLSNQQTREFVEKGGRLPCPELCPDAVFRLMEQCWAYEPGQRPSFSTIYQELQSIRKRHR

FGFR3 = FGFR3 (UniProt P22607); assay: as above
Sequence of FGFR3 (P22607 whole entry, looked up): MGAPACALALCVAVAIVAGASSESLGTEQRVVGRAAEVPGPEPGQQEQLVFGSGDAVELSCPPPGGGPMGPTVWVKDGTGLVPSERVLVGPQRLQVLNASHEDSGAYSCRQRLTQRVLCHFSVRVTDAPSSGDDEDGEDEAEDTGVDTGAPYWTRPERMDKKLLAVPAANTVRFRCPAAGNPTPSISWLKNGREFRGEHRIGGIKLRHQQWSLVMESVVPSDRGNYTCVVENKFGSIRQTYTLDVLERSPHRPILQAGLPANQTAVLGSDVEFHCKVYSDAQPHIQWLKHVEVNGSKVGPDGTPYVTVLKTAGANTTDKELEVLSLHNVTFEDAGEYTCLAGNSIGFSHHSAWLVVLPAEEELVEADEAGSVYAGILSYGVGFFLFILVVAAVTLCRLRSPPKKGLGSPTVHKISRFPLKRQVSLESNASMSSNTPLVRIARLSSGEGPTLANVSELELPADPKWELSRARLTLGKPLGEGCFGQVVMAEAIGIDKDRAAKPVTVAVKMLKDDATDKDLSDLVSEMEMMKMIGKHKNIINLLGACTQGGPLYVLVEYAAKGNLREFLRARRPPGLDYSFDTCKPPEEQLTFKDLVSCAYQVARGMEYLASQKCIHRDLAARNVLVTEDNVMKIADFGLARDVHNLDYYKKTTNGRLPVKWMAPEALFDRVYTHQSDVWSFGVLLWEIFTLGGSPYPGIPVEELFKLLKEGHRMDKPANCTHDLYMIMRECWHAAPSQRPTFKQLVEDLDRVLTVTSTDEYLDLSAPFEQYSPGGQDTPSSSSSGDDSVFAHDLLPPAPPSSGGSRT

c-Abl (mouse) = assay: as above
AncSZ = assay: as above
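Throughout, for SH2 binding enrichment of the phosphorylated peptide, bacterial display: peptide library displayed on the E. coli surface as eCPX fusions, selected cells deep-sequenced, score is each peptide's frequency after selection divided by its frequency in the input.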
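Throughout, for phosphorylation enrichment, bacterial display: 11-residue human phosphosite peptides and single-mutation variants displayed on the E. coli surface, counted by deep sequencing, each peptide's frequency after selection divided by its frequency in the unselected input library; frequency after pTyr selection over input frequency; kinase dosed for 20-30% of maximal phosphorylation in three min.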

Sequence | SH2 binding enrichment (Grb2 SH2) | SH2 binding enrichment (SHP2-C SH2) | SH2 binding enrichment (c-Src SH2) | phosphorylation enrichment (EPHB1) | phosphorylation enrichment (Fyn) | phosphorylation enrichment (EPHB2) | phosphorylation enrichment (Fer (mouse)) | phosphorylation enrichment (MERTK) | phosphorylation enrichment (Jak2) | phosphorylation enrichment (Hck) | phosphorylation enrichment (FGFR1) | phosphorylation enrichment (c-Src) | phosphorylation enrichment (Fes) | phosphorylation enrichment (FGFR3) | phosphorylation enrichment (c-Abl (mouse)) | phosphorylation enrichment (AncSZ)
VGTTAYMAPEA [IRAK4_Y354] | 0.918 | 0.692 | 0.568 | 0.385 | 0.407 | 0.379 | 0.452 | 0.354 | 0.689 | 0.434 | 0.418 | 0.414 | 0.893 | 0.517 | 0.537 | 0.707
KAIMTYVSSFY [ACTN4_Y260] | 0.86 | 0.987 | 0.564 | 0.644 | 0.536 | 0.666 | 0.505 | 0.424 | 1.04 | 0.554 | 0.489 | 0.612 | 1.05 | 0.719 | 0.755 | 0.976
ISKTWYSAEQF [CD207_Y217_P213S] | 0.822 | 0.781 | 0.689 | 1.84 | 0.532 | 1.8 | 0.521 | 7.68 | 0.604 | 0.481 | 0.605 | 0.522 | 0.837 | 0.757 | 0.585 | 0.793
PVQAAYQNVVA [HBB_Y131_K133N] | 34.4 | 1.49 | 3.07 | 0.915 | 0.644 | 0.567 | 0.98 | 0.591 | 0.645 | 0.536 | 0.699 | 0.49 | 0.877 | 0.692 | 0.591 | 0.931
HEEKVYLSRGD [CRACR2A_Y141] | 0.812 | 0.495 | 0.366 | 0.541 | 0.995 | 0.526 | 0.569 | 0.611 | 0.784 | 0.885 | 0.672 | 1.08 | 1.05 | 1.17 | 0.826 | 0.884
IRRSSYEDSSL [HNF4A_Y144_T139I] | 0.749 | 0.588 | 0.47 | 0.444 | 0.481 | 0.543 | 0.526 | 0.485 | 0.65 | 0.53 | 0.411 | 0.591 | 0.758 | 0.487 | 0.824 | 0.705
QGLMPYGQPRP [SRRT_Y798] | 0.955 | 0.653 | 0.357 | 0.568 | 0.488 | 0.513 | 0.424 | 0.596 | 0.601 | 0.563 | 0.696 | 0.883 | 0.863 | 0.527 | 0.725 | 0.853

Further lines, with some results ahead:

SH2 binding enrichment (Grb2 SH2) | SH2 binding enrichment (SHP2-C SH2) | SH2 binding enrichment (c-Src SH2) | Sequence | phosphorylation enrichment (EPHB1) | phosphorylation enrichment (Fyn) | phosphorylation enrichment (EPHB2) | phosphorylation enrichment (Fer (mouse)) | phosphorylation enrichment (MERTK) | phosphorylation enrichment (Jak2) | phosphorylation enrichment (Hck) | phosphorylation enrichment (FGFR1) | phosphorylation enrichment (c-Src) | phosphorylation enrichment (Fes) | phosphorylation enrichment (FGFR3) | phosphorylation enrichment (c-Abl (mouse)) | phosphorylation enrichment (AncSZ)
0.848 | 0.701 | 0.598 | NTTIHYNFMCN [TP53_Y234_C229N_YF] | 0.698 | 0.495 | 0.618 | 0.557 | 0.427 | 1.02 | 0.511 | 0.542 | 0.46 | 1.24 | 0.828 | 0.782 | 1.14
0.919 | 0.837 | 0.294 | GSIQQYIYKQE [PRG4_Y1271] | 0.425 | 0.522 | 0.567 | 0.398 | 0.433 | 0.811 | 0.439 | 0.507 | 0.752 | 0.644 | 0.539 | 0.486 | 0.651
0.811 | 0.521 | 0.533 | IENKLYGMSDP [RET_Y1062] | 0.506 | 0.613 | 0.653 | 0.666 | 0.546 | 0.617 | 0.732 | 0.585 | 0.698 | 0.988 | 0.689 | 0.707 | 0.941
0.941 | 1.03 | 0.753 | YRTPGYREVVI [TNS2_Y673_A670T] | 0.358 | 0.425 | 0.453 | 0.399 | 0.472 | 0.587 | 0.341 | 0.42 | 0.465 | 0.721 | 0.447 | 1.23 | 0.799
1.2 | 0.713 | 0.693 | QYRFIYMAVQH [PTPN11_Y515] | 1.52 | 1.82 | 0.947 | 1.29 | 0.729 | 1.21 | 2.21 | 0.667 | 1.93 | 1.22 | 1.48 | 0.973 | 1.32
1.41 | 1.06 | 0.867 | CEHRGHLFLAI [TEK_Y897_Y897H_YF] | 0.625 | 0.516 | 0.544 | 0.463 | 0.482 | 0.888 | 0.547 | 0.536 | 0.453 | 1.11 | 0.908 | 0.806 | 1.02
0.873 | 8.91 | 1.25 | PQEVTYAQLDH [KIR3DL2_Y398] | 1.3 | 9.11 | 1.33 | 3.3 | 3.38 | 2.87 | 10.7 | 3.41 | 13.6 | 2.64 | 2.12 | 4.39 | 2.44
0.966 | 1.1 | 0.702 | PVVKLYATEGR [RP1_Y199_D202E] | 0.389 | 0.633 | 0.251 | 0.455 | 0.574 | 0.683 | 0.794 | 0.496 | 0.54 | 0.807 | 0.568 | 0.71 | 0.858
0.805 | 0.981 | 0.59 | IAINKYEVSLI [MYO7A_Y2136_G2137E] | 0.505 | 0.514 | 0.562 | 0.486 | 0.371 | 0.851 | 0.493 | 0.445 | 0.451 | 0.99 | 0.635 | 0.598 | 0.89
